Patent publication US20210121527A1, “METHODS OF TREATING MINIMAL RESIDUAL CANCER” (ICAHN SCHOOL OF MEDICINE AT MOUNT SINAI, priority 2018, published 2021)

What was measured:
HEp3 HNSCC cells = assay: ERK/p38 activity ratio, dormancy mRNAs and NR2F1 in HEp3 cells; assay type: cell-based
Experimental: The effect on the ERK/p38 activity ratio is observed after 2-6 and 24 hours (second through fourth group of columns). In the first 30 minutes, ERK activity is stimulated by BMP7 (first column set). […] Arrows indicate NR2F1 flourescence. Differences in FIG. 13A and FIG. 13B, p<0.05 as calculated using Student's t test.
BMP7-F9 reduces the ERK/p38 activity ratio and induces various mRNAs in the dormancy signature (FIGS. 13A-13C). […] The effect on the ERK/p38 activity ratio is observed after 2-6 and 24 hours (second through fourth group of columns). In the first 30 minutes ERK activity is stimulated by BMP7 (first column set). […] Differences in FIG. 13A and FIG. 13B, p<0.05 as calculated using Student's t test.

T-HEp3 cells [1] = assay: Cell titer blue proliferation assay; assay type: cell-based; details: 48 hours
T-HEp3 cells [2] = assay: T-HEp3 tumors on chicken embryo chorioallantoic membranes (CAM); assay type: in vivo; details: 24 hours pre-treatment, then 50 ng/ml daily
Experimental: FIG. 14B is a schematic illustration of the in vivo experimental procedure used in FIGS. 14C-14D. T-HEp3 cells were pre-treated for 24 hours with BMP7-F9 in vitro and then inoculated on chicken embryo chorioallantoic membranes (“CAM”s) (FIG. 14C), where they were treated daily in vivo with vehicle or BMP7-F9 (50 ng/ml) prior to collection of the tumors and quantification of number of HEp3 HNSCC cells (FIG. 14D) and levels of P-H3 (FIG. 14E). Arrows in FIG. 14E indicate overlapping P-H3 and DAPI fluorescence.
FIG. 14B is a schematic illustration of the in vivo experimental procedure used in FIGS. 14C-14D. T-HEp3 cells were pre-treated for 24 hours with BMP7-F9 in vitro and then inoculated on chicken embryo chorioallantoic membranes (CAMs) (FIG. 14C), where they were treated daily in vivo with vehicle or BMP7-F9 (50 ng/ml) prior to collection of the tumors and quantification of number of HEp3 HNSCC cells/tumor (FIG. 14D) and levels of P-H3 (FIG. 14E).

HEp3-GFP HNSCC tumors = assay: HEp3-GFP HNSCC tumor surgery model in NSG mice, local recurrence and lung DCCs; assay type: in vivo, mouse
Source text: FIGS. 15A-15C show the evaluation of BMP7-F9 treatment in a mouse model of disease. FIG. 15A is a schematic illustration of an in vivo experimental procedure used to evaluate the effect of BMP7-F9 on metastasis initiation. […] Tumors were then removed via surgery. 1-2 days after surgery, the adjuvant treatment with BMP7-F9 was continued for another 3, 4, or 6 weeks. Animals were then euthanized and the DCC burden in lung was scored using fluorescence microscopy. […] At those time points, the percentage of local recurrence and DCC incidence was scored. In FIG. 15C, mice were treated as in FIG. 15A, except that the adjuvant treatment was for 4 weeks. The number of GFP positive cells in dissociated lungs was scored following treatment. […] Note that the median of DCC burden drops one log and that BMP-7 apparently cures from DCCs 3 of 7 animals.
Tumors were then removed via surgery. 1-2 days after surgery, the adjuvant treatment with BMP7-F9 was continued for another 4 weeks. Animals were then euthanized and the DCC burden in lung was scored using fluorescence microscopy. […] NSG mice were treated following the protocol in FIG. 15A for 4 weeks. At those time points, the percentage of local recurrence and DCC incidence was scored. The number of GFP positive cells in dissociated lungs was scored following treatment. […] Note that the median of DCC burden drops one log and that BMP-7 apparently cures from DCCs 3 of 7 animals.

[3] = adjuvant treatment only, 3 weeks
[4] = adjuvant treatment only, 6 weeks
[5] = neo-adjuvant and adjuvant treatment, 4 weeks

B1: BMP7-F9: variant of human mature BMP7, homodimer of SEQ ID NO:8 (protein, listed as Homo sapiens)
chain: STGSKQRSQNRSKTPKNQEALRMANVAENSSSDQRQACKKHELYVSFRDLGWQDWIIAPEGYAAGYCEGECAFPLNSYMNATNHALVQTLVHVINPETVPKPCCAPTQLGAISVLYFDDSSNVILKKWRNMVVRACGCH
modifications: homodimer
DEC2, p53 and p27 mRNAs (HEp3 HNSCC cells; 10 ng/ml, 24 hours): induces DEC2, p53, and p27 mRNAs
nuclear NR2F1 (immunofluorescence) (HEp3 HNSCC cells; 10 ng/ml, 24 hours): induces nuclear accumulation of NR2F1
ERK/p38 activity ratio (Western blot) (HEp3 HNSCC cells; 2, 5 and 10 ng/ml, 2-6 and 24 hours): reduces the ERK/p38 activity ratio over control
proliferation in vitro (cell titer blue) (T-HEp3 cells [1]): inhibits their proliferation in vitro
growth of T-HEp3 cells in vivo (CAM) (T-HEp3 cells [2]): induces growth arrest of T-HEp3 cells
+DCCs in lungs (animals) (HEp3-GFP HNSCC tumors; [3]): 5
+local recurrence (animals) (HEp3-GFP HNSCC tumors; [3]): 1
DCC incidence (%) (HEp3-GFP HNSCC tumors; [3]): 50.0%
Local recurrence incidence (%) (HEp3-GFP HNSCC tumors; [3]): 9.1%
Median number of GFP^+/Vimentin^+ tumor cells/lung (HEp3-GFP HNSCC tumors; [3]): 0.62E+04
+DCCs in lungs (animals) (HEp3-GFP HNSCC tumors; [4]): 3
+local recurrence (animals) (HEp3-GFP HNSCC tumors; [4]): 0
DCC incidence (%) (HEp3-GFP HNSCC tumors; [4]): 42.9%
Local recurrence incidence (%) (HEp3-GFP HNSCC tumors; [4]): 0.0%
Median number of GFP^+/Vimentin^+ tumor cells/lung (HEp3-GFP HNSCC tumors; [4]): 0
+DCCs in lungs (animals) (HEp3-GFP HNSCC tumors; [5]): 4
+local recurrence (animals) (HEp3-GFP HNSCC tumors; [5]): 3
DCC incidence in lungs % (HEp3-GFP HNSCC tumors; [5]): 57.1%
Median number of GFP^+/Vimentin^+ tumor cells/lung (HEp3-GFP HNSCC tumors; [5]): 0.02E+04
animals apparently cured from DCCs (HEp3-GFP HNSCC tumors; [5]): 3 of 7
local recurrence % (HEp3-GFP HNSCC tumors; [5]): 42.9%
median of DCC burden in lungs (HEp3-GFP HNSCC tumors; [5]): drops one log
